In article PMC8330776 (Emerging Microbes & Infections, 2021) one finds Kd, koff and kon data, which are given here for 1 molecule.

The assay deals with SARS-CoV-2 S trimer (SARS-CoV-2, UniProt P0DTC2). The assay can be described thus: SPR. The settings on record: both partners purified.

B1: wheat germ agglutinin (natural protein)
chain: QRCGEQGSNMECPNNLCCSQYGYCGMGGDYCGKGCQNGACWTSKRCGSQAGGATCTNNQCCSQYGYCGFGAEYCGAGCQGGPCRADIKCGSQAGGKLCPNNLCCSQWGFCGLGSEFCGGGCQSGACSTDKPCGKDAGGRVCTNNYCCSKWGSCGIGPGYCGAGCQSGGCDG
As for B1, the Kd (in general, the constant that tells how readily two partners part at equilibrium) was 1.5 nM; the koff (usually a measure of how fast the partners let go of each other) was 0.00482 s⁻¹; the kon (as a rule, a measure of how fast the partners come together) worked out at 3.21e+06 M⁻¹ s⁻¹.
